“Also recorded” adds a separate entry of the source. Values belong to the molecule of their own block, whether it stands above or below them. No end group written: not given here.
Legend:
[1] = biological target: T1, PR-3 (Homo sapiens, UniProt P24158); settings: cited from earlier work; for kI for PR-3: Kam, 1992
T1 sequence (P24158 28-248): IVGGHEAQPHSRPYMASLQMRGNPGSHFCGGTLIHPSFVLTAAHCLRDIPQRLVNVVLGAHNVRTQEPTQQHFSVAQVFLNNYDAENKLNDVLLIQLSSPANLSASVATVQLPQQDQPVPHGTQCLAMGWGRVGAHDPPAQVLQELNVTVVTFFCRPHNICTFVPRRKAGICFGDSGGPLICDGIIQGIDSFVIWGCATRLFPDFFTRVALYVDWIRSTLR

[2] = tested on: IL-32 responsive cells; assay: Biological activity of IL-32 and its proteolytic fragments (summary statement referring to Example 8); type: cell-based; settings: for biological activity compared to the intact IL-32 protein: fragments generated by PR-3 cleavage
Text: The cleavage of IL-32 and the consequent enhancement of the biological activity were both blocked by the action of PMSF.
For the purpose of the present description the expression “biological activity of IL-32” refers inter alia to at least one of the following biological properties:
(i) induction of MIP-2, (ii) induction of TNF, and (iii) induction of IL-8.

[3] = biological target: T2, PR-3 (Homo sapiens, UniProt P24158); assay: Inhibition of the proteolytic activity of PR-3 by PMSF (cleavage of 125I-IL-32); type: biochemical; settings: PR-3 pre-incubated with PMSF 1 mM, 10 min at 37° C.; then 1 and 5 min with 125I-IL-32
T2 construct: tissue Athens Research and Technology
T2 sequence (P24158 28-248 limits assumed): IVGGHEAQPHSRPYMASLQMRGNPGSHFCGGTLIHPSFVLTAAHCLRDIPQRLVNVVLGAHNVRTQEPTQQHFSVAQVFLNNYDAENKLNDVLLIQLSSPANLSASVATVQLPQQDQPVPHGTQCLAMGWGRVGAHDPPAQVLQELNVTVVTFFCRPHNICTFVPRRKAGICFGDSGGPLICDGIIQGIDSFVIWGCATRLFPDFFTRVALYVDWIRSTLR
Description: Lanes 1-4 show ^125I-IL-32 following incubation with urinary PR-3 for 1 and 5 min., either not treated (Lanes 1 and 2) or pre-treated with PMSF (Lanes 3 and 4). Lanes 7-10 show ^125I-IL-32 following incubation with commercial PR-3 for 1 and 5 min., either not treated (Lanes 9 and 10) or pre-treated with PMSF (Lanes 7 and 8). Molecular weight markers (in kDa; lane 5) are indicated at the right side.
The experiment presented in FIG. 6 was performed as described in examples 5 and 6, except that PR-3 was pre-incubated with PMSF (final concentration of 1 mM, 10 min at 37° C.) prior to the incubation with ^125I-IL-32.

[4] = biological target: T3, ^125I-IL-32 (Homo sapiens, UniProt P24001); assay: Kinetics of degradation of 125I-IL-32 by urinary and commercial PR-3 (SDS-PAGE, autoradiography); type: biochemical
T3 construct: made in house; host or cells: E. coli (IL-32α)
T3 sequence (P24001 1-131 isoform P24001-4): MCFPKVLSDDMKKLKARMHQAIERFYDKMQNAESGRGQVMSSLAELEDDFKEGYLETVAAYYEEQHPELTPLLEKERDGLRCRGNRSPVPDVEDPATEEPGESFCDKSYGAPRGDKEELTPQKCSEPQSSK
T3 sequence (P24158 28-248 partner limits assumed): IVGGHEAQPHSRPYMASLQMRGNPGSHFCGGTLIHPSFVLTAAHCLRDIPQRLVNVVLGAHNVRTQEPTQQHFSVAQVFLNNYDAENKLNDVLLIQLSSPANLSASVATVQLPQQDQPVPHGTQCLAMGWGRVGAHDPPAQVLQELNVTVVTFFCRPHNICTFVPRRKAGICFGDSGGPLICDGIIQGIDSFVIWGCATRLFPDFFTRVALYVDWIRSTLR
Description: After 1 minute of incubation with PR-3 the 20 kDa IL-32 (Lane 1) was cleaved into two cleavage products of 16 and 13 kDa (Lane 2). After 5 min. (Lane 3) the band corresponding to the intact IL-32 disappeared and the cleavage products remained stable for at least 60 min. (lanes 3, 4, 6, and 7). The resulting ^125I-IL-32 fragments of apparent MW of 20 kDa, 16 kDa and 13 kDa are indicated on the left side of the FIG.
The experiment was carried out essentially as indicated in FIG. 4 (Example 5) except, that incubation of PR-3 and IL32 was limited to up to 5 minutes and that both urinary and commercial PR-3 were used. Urinary (Lines 1-3) or commercial PR-3 (Lines 5-7) were incubated with ^125I-IL-32 for 0, 1 and 5 minutes.
Affinity purified urinary PR-3 (elution 3 fraction from Example 1, FIG. 1, 50 μl) was added to ^125I-IL-32 (250,000 cpm in 10 μl of gelatin solution) and incubated at 37° C. for 0, 1, 5, 15, 30, and 60 min. (FIG. 4). Degradation was stopped by the addition of SDS-PAGE sample buffer and by boiling for 10 min. Samples containing ^125I-IL-32 and PR-3 incubated at different periods of time (0-60 min.) were resolved on 12% SDS-PAGE under reducing conditions. The gel was dried and autoradiographed. The results summarized on FIG. 4 show the reduction in the 20 kDa band representing intact IL-32 (FIG. 4, lane 1) and the increase in the levels of a 16 and 13 kDa IL-32 cleavage products after a 1-minute incubation with PR-3 (FIG. 4, lane 2).
Urinary PR-3 or commercial PR-3 (Athens Research and Technology) were incubated with ^125I-IL-32 for 0, 1 and 5 min. Digestion was stopped by the addition of SDS-PAGE sample buffer and by boiling for 10 min. The samples were resolved on SDS-PAGE under reducing conditions. The gel was dried and autoradiographed. […] This difference is probably due to a different specific activity of urinary vs. commercial PR3.

[5] = tested on: human peripheral blood mononuclear cells (PBMC); assay: IL-8 secretion by human PBMC stimulated with IL-32 or PR-3-pretreated IL-32; type: cell-based; settings: IL-32 20 or 200 ng/ml; PR-3 100 ng/ml, 5 min pretreatment
Description: Human PBMC cells were seeded in 96 well plates and incubated with IL-32 (20 or 200 ng/ml), IL-32 pretreated with PR-3 (100 ng/ml) for 5 min. or with PR-3 alone as the a control. The content of IL-8 into the cell culture medium was measured.
Similar enhancement of IL-32 activity by pre-treatment with PR-3 was shown in an experiment carried out with human peripheral blood mononuclear cells (PBMC). PBMC were prepared as previously described [Kim, 2005 #36] and seeded at a concentration of 5×10^5 cells per well in 96 well plates. The experimental setting of stimulation with IL-32 and IL-32 pre treated with PR-3 was identical to that described above for the mouse Raw cells. After stimulation of the human PBMC cells with either IL-32 or IL-32 pre treated with PR-3, the culture supernatants were collected to measure human IL-8 released by the cells.

[6] = tested on: Raw 264.7 cells; assay: MIP-2 secretion by mouse macrophage Raw 264.7 cells stimulated with IL-32 or PR-3-pretreated IL-32; type: cell-based; settings: IL-32 20 or 200 ng/ml; PR-3 100 ng/ml, 5 min pretreatment; 16-20 h; polymyxin B 5 μg/ml
Description: Mouse macrophage Raw 264.7 cell line were seeded in a 96 well plate and incubated with IL-32 (20 or 200 ng/ml), IL-32 pretreated with PR-3 (100 ng/ml) for 5 min. or with PR-3 alone as the a control, and MIP-2 secreted into the cell culture medium was measured. […] PR-3 alone had no effect on the cells.
Mouse macrophage Raw 264.7 cell line (American Type Culture Collection, ATCC) was maintained in RP MI-1640 medium containing 10% FCS. Bioassays were performed in 96 well plates. Briefly, Raw cells (5×10^5/ml, 0.1 ml/per well) were seeded and cultured until cells adhered to the plate. The medium was removed and the cells were then stimulated with fresh medium (without FCS) containing different concentration of IL-32 or IL-32 pre-treated with PR-3 for 5 min at room temperature in the presence 5 μg/ml of the LPS blocker polymyxin B (Bedford Laboratories, Bedford, Ohio). The plates were incubated at 37° C. with 5% CO2 for 16-20 h and then the culture supernatants were collected to measure MIP-2 released by the cell culture.

Molecule: Elafin: a human skin derived peptide that inhibits human leukocyte elastase (AQEPVKGPVSTKPGSCPIILIRCAMLNPPNRCLKDTDCPGIKKCCEGSCGMACFVPQ; ends and bridges not checked; cysteine pairing not given here; UniProt P19957 61-117, looked up)
IC50 ([1]; Wiedow, 1991, Zani, 2004): 0.0095 µM
potency compared with antileukoprotease and eglin C ([1]; inhibition of PR-3): more than 100 fold

Molecule: Nc1ccc2c(Cl)c(OCCBr)oc(=O)c2c1 [7-amino-4-chloro-3-(2-bromoethoxy) isocoumarin]
kI for PR-3 [1]: 4700 M⁻¹ s⁻¹

Molecule: MCFPKVLSDDMKKLKARMHQAIERFYDKMQNAESGRGQVMSSLAELEDDFKEGYLET (listed as Homo sapiens) [13 kDa (SEQ ID NO: 1), supposed N-terminal fragment of IL-32 generated by PR-3]
biological activity compared to the intact IL-32 protein [2]: enhanced biological activity

Molecule: Cc1ccc(C(=O)Nc2ccc(S(=O)(=O)O)c3cc(S(=O)(=O)O)cc(S(=O)(=O)O)c23)cc1NC(=O)c1cccc(NC(=O)Nc2cccc(C(=O)Nc3cc(C(=O)Nc4ccc(S(=O)(=O)O)c5cc(S(=O)(=O)O)cc(S(=O)(=O)O)c45)ccc3C)c2)c1 [Suramin]
Ki ([1]; Cadene, 1997): 0.5 µM

Molecule: O=S(=O)(F)Cc1ccccc1 [PMSF, phenyl methyl sulfonyl fluoride]
cleavage of IL-32 by urinary and commercial PR-3 [3]: completely abolished; also recorded: completely blocked
enhancement of the biological activity of IL-32 following cleavage by PR-3 ([2]; action of PMSF): blocked

Molecule: O=c1oc(Cl)c(Cl)c2ccccc12 [3,4-dichloroisocoumarin]
kI for PR-3 [1]: 2600 M⁻¹ s⁻¹

digestion of IL-32 after overnight incubation with PR-3 ([4]; overnight at 4° C., no product higher than the 10 kDa marker): complete digestion
B1: PR-3: granule serine protease, source (urinary or commercial) not stated at these places (protein)
chain: AEIVGGHEAQPHSRPYMASLQMRGNPGSHFCGGTLIHPSFVLTAAHCLRDIPQRLVNVVLGAHNVRTQEPTQQHFSVAQVFLNNYDAENKLNDVLLIQLSSPANLSASVATVQLPQQDQPVPHGTQCLAMGWGRVGAHDPPAQVLQELNVTVVTFFCRPHNICTFVPRRKAGICFGDSGGPLICDGIIQGIDSFVIWGCATRLFPDFFTRVALYVDWIRSTLRRVEAKGRP
IL-8 secreted into the cell culture medium [5]: did not induce IL-8
MIP-2 secreted into the cell culture medium [6]: no effect

B2: VAAYYEEQHPELTPLLEKERDGLRCRGNRSPVPDVEDPATEEPGESFCDKSYGAPR GDKEELTPQKCSEPQSSK (protein, listed as Homo sapiens)
chain: VAAYYEEQHPELTPLLEKERDGLRCRGNRSPVPDVEDPATEEPGESFCDKSYGAPRGDKEELTPQKCSEPQSSK
notes: C-terminal fragment of IL-32 generated by PR-3
biological activity compared to the intact IL-32 protein [2]: enhanced biological activity

incubation time to complete disappearance of the 20 kDa intact IL-32 band ([4]; 37° C., cleaved into 16 and 13 kDa fragments): 5 min
B3: urinary PR-3: human Proteinase-3 (28-32 kDa) affinity purified from human urine on an IL-32 column, elution fraction 3 (protein)
chain: IVGGHEAQPHSRPYMASLQMRGNPGSHFCGGTLIHPSFVLTAAHCLRDIPQRLVNVVLGAHNVRTQEPTQQHFSVAQVFLNNYDAENKLNDVLLIQLSSPANLSASVATVQLPQQDQPVPHGTQCLAMGWGRVGAHDPPAQVLQELNVTVVTFFCRPHNICTFVPRRKAGICFGDSGGPLICDGIIQGIDSFVIWGCATRLFPDFFTRVALYVDWIRSTLR

B4: commercial PR-3: commercially available human neutrophil derived PR-3 (Athens Research and Technology) (protein)
chain: IVGGHEAQPHSRPYMASLQMRGNPGSHFCGGTLIHPSFVLTAAHCLRDIPQRLVNVVLGAHNVRTQEPTQQHFSVAQVFLNNYDAENKLNDVLLIQLSSPANLSASVATVQLPQQDQPVPHGTQCLAMGWGRVGAHDPPAQVLQELNVTVVTFFCRPHNICTFVPRRKAGICFGDSGGPLICDGIIQGIDSFVIWGCATRLFPDFFTRVALYVDWIRSTLR
potency of IL-32 cleavage, commercial vs urinary PR-3 ([4]; incubation 0, 1 and 5 min): more potent than the urinary PR-3; also recorded: more efficient than the urine-derived PR-3

B5: IL-32: recombinant human IL-32α produced in E. coli, about 20 kDa (protein)
chain: MCFPKVLSDDMKKLKARMHQAIERFYDKMQNAESGRGQVMSSLAELEDDFKEGYLETVAAYYEEQHPELTPLLEKERDGLRCRGNRSPVPDVEDPATEEPGESFCDKSYGAPRGDKEELTPQKCSEPQSSK
IL-8 secreted into the cell culture medium [5]: induced the secretion of IL-8
MIP-2 secreted into the cell culture medium [6]: induced the secretion of MIP-2

B6: MNEI: a 42 kDa serpin superfamily member (protein, UniProt P30740 1-379, looked up)
Leukocyte elastase inhibitor: MEQLSSANTRFALDLFLALSENNPAGNIFISPFSISSAMAMVFLGTRGNTAAQLSKTFHFNTVEEVHSRFQSLNADINKRGASYILKLANRLYGEKTYNFLPEFLVSTQKTYGADLASVDFQHASEDARKTINQWVKGQTEGKIPELLASGMVDNMTKLVLVNAIYFKGNWKDKFMKEATTNAPFRLNKKDRKTVKMMYQKKKFAYGYIEDLKCRVLELPYQGEELSMVILLPDDIEDESTGLKKIEEQLTLEKLHEWTKPENLDFIEVNVSLPRFKLEESYTLNSDLARLGVQDLFNSSKADLSGMSGARDIFISKIVHKSFVEVNEEGTEAAAATAGIATFCMLMPEENFTADHPFLFFIRHNSSGSILFLGRFSSP
rate of PR-3 inhibition ([1]; Cooley, 2001): > 10^7 M^−1·s^−1

Source: patent publication US9045559B2, “Method for screening inhibitors of interleukin-32 (IL-32)” (Yeda Research and Development Co. Ltd, priority 2005, dated 2015)
